In patent US20180057604A1 (Genentech, published 2018):
Read-outs that look alike come from different tables or passages of the source. Blank lines part the entries; values can stand above or below the binder they belong to.

Tests used:
[1] = target: T1, human TfR extracellular domain with N-terminal His tag (human, UniProt P02786 89-760); experiment: SPR, IgG
T1 construct: Biotinylated in some assays; also called huTfR; HuTfR

[2] = target: T2, cyno TfR extracellular domain (analogous construct to human TfR ecd) (cynomolgus monkey, UniProt Q5RDH6 87-760 (Pongo abelii entry)); experiment: SPR, IgG
T2 construct: also called cynoTfR ecd
T2 chain: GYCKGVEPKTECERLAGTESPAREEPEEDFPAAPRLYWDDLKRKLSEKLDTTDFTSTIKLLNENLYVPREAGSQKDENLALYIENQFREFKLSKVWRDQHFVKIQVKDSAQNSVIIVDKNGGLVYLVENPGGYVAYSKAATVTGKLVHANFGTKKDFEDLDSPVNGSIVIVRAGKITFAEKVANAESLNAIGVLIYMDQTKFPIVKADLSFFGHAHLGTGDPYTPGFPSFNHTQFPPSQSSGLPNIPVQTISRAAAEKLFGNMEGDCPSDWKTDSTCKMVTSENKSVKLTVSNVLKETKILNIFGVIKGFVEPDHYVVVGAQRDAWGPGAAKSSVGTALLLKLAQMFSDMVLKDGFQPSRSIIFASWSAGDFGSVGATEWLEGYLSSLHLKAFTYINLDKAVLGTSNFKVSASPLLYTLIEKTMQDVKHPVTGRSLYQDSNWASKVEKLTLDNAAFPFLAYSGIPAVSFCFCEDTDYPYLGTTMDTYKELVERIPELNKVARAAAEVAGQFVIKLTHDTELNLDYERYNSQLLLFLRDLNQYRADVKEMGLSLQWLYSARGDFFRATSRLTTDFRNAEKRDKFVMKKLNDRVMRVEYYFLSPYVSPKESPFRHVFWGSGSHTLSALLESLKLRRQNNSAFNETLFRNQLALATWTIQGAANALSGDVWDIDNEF

[3] = target: T1, human TfR extracellular domain with …; experiment: SPR, IgG; remark: listed apart in the source
[4] = target: T2, cyno TfR extracellular domain …; experiment: SPR, IgG
[5] = target: T1, human TfR extracellular domain with …; experiment: SPR, IgG; remark: listed apart in the source
[6] = target: T2, cyno TfR extracellular domain …; experiment: SPR, IgG
human BACE1 ECD [7] = target: T3, human BACE1 ECD; experiment: Octet, pH 5.0;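 also: antibodies captured on anti-human capture sensor tips, dissociation monitored in PBS with BSA buffer, kinetics fitted with a one-to-one binding model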
T3 construct: analyte of the Octet assay (200 nM) and enzyme of the first short substrate assay; also called human BACE1 extracellular domain
T3 sequence (single chain, as listed by the source limits assumed): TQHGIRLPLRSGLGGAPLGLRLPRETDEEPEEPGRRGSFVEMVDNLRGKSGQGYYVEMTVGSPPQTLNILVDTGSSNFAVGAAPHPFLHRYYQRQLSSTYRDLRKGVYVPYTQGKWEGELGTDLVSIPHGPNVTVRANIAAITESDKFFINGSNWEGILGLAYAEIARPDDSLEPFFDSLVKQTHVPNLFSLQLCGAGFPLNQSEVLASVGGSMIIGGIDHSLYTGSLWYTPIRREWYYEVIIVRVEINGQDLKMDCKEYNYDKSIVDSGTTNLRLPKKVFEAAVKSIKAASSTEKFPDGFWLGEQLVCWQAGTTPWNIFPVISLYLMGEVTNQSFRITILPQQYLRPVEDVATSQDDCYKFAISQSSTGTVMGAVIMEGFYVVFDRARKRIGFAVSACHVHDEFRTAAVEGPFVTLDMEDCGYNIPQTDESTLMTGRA

murine BACE1 ECD [8] = target: T4, murine BACE1 ECD; experiment: Octet, pH 5.0;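 also: antibodies captured on anti-human capture sensor tips, dissociation monitored in PBS with BSA buffer, kinetics fitted with a one-to-one binding model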
T4 construct: analyte of the Octet assay (200 nM) and enzyme of the first short substrate assay
T4 sequence (single chain, as listed by the source limits assumed): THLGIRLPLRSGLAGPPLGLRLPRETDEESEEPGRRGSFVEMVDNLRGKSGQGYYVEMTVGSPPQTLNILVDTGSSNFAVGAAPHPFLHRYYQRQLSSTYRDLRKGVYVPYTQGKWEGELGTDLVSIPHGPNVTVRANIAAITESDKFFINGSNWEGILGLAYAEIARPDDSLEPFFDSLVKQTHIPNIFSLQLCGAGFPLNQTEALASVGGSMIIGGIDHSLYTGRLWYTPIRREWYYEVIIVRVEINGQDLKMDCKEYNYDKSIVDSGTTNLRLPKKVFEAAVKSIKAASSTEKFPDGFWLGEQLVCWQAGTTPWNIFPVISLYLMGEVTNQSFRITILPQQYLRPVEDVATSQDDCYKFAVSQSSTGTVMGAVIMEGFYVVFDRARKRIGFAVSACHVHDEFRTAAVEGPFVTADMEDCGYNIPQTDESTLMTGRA

human BACE1 ECD [9] = target: T3, human BACE1 ECD; experiment: Octet, pH 7.5;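 also: antibodies captured on anti-human capture biosensor tips, dissociation followed in PBS with BSA buffer, kinetics fitted with a one-to-one binding model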
murine BACE1 ECD [10] = target: T4, murine BACE1 ECD; experiment: Octet, pH 7.5;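 also: antibodies captured on anti-human capture biosensor tips, dissociation followed in PBS with BSA buffer, kinetics fitted with a one-to-one binding model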
[11] = target: T5, human BACE1 (R&D Systems) (human, UniProt P56817); experiment: SPR (Biacore)
T5 construct: recombinant, commercial (R&D Systems)
T5 sequence (P56817 22-457 limits assumed): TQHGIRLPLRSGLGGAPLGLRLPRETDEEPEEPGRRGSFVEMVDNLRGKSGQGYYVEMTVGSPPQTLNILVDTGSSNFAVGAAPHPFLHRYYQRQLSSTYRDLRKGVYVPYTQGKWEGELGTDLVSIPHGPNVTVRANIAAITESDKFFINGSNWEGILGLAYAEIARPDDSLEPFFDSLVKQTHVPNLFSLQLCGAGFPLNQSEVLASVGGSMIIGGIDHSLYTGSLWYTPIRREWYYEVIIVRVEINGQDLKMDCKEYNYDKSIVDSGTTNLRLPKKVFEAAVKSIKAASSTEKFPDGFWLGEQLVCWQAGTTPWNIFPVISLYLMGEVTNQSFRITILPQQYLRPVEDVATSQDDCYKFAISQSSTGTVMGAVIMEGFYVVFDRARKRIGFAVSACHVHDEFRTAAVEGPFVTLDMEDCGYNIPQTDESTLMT

human BACE1 ECD [12] = target: T3, human BACE1 ECD; experiment: cell-based or functional assay
murine BACE1 ECD [13] = target: T4, murine BACE1 ECD; experiment: cell-based or functional assay
[14] = target: BACE1 (HTRF long substrate and FRET short substrate assays of Example 9D); experiment: cell-based or functional assay
[15] = target: T6, BACE1 in primary mouse cortical neurons (mouse, UniProt P56818 46-501); experiment: cell-based or functional assay
T6 sequence (P56818 46-501): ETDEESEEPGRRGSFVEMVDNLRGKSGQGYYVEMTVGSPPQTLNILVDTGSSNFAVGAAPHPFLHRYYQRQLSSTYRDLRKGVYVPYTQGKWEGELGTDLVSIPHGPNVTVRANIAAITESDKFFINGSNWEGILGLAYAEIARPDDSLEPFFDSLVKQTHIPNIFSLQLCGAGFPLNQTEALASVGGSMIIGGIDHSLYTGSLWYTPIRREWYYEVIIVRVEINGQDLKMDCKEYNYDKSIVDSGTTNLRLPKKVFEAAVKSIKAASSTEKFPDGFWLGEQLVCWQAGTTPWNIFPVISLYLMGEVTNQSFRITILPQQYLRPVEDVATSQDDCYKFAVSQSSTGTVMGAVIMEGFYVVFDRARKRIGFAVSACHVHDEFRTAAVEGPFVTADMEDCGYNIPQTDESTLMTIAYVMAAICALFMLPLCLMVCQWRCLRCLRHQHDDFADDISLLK

[16] = target: T6, BACE1 in primary mouse cortical neurons; experiment: cell-based or functional assay; remark: listed apart in the source

T1 sequence (P02786 89-760 G142S): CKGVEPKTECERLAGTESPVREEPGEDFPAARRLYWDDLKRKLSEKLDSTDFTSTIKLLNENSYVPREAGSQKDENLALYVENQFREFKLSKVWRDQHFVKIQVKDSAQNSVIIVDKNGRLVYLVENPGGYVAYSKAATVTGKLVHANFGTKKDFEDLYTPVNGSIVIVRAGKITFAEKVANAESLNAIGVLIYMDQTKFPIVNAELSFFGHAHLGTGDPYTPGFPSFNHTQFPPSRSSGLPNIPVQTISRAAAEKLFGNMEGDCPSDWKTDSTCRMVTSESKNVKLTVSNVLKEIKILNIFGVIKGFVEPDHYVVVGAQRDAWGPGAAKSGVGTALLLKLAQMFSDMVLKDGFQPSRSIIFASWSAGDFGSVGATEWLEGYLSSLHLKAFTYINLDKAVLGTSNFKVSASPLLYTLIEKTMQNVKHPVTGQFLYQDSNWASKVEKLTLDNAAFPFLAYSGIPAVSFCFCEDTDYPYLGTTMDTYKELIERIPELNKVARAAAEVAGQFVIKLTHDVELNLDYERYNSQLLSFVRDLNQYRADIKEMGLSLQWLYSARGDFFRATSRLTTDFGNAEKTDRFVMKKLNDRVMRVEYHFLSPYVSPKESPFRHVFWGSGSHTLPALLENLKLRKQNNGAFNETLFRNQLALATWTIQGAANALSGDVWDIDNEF

B2: 7A4 (antibody, V domains shown)
VH: QVQLQQSGPELVRPGVSVKISCKGSGYTFTDYAMHWVKQSHAKSLEWIGGISTYFGRTNYNQKFKGRATMTVDKSSSTAYMELARLTSEDSALYYCARGLSGNYVMDYWGQGTSVTVSS
VL: DIVLTQSPASLAVSLGQRATISCRASESVDDYGNSFMHWYQQKPGQPPKLLIYRASNLESGIPARFSGSGSRTDFTLTINPVEADDVATYYCQQSNEAPPTFGGGTKLEIR
notes: also called clone 7A4
- Kd [1]: 0.206 nM
- Kd [2]: 0.627 nM
- Kd [5]: 0.206 nM
- Kd [6]: 0.627 nM

B8: 16G4 (antibody, V domains shown)
VH: QVQLQQPGAELVKPGASVKLSCKASGYTFTSYWMHWVKQRPGQGLEWIGEINPSNGRTNYNETFKSKATLTVDKSSSTAYMQLSSLTSEDSAVYYCARGTRAYHYWGQGTSVTVSS
VL: DIQMTQSPASLSVSVGETVTITCRASDNIYSNLAWYQQKQGKSPQLLVYAVTNLADGVPSRFSGSGSGTQYSLKINSLQSEDFGSYYCQHFWGTPLTFGAGTKLELK
notes: Mouse hybridoma antibody; also called clone 16G4
- Kd [1]: 3.4 nM
- Kd [2]: 22.4 nM

B9: 5888 (antibody, V domains shown)
VH: QVQLVQSGAEVKKPGSSVKVSCKASGGTFWKYAISWVRQAPGQGLEWMGNIIPGFGTANYAQKFRGRVTITADESTSTAYMELSSLRSEDTAVYYCARSGGTKYGMLDVWGQGTMVTVSS
VL: EIVMTQSPATLSVSPGERATLSCRASQSVSSNLAWYQQKPGQAPRLLIYGASTRATGIPARFSGSGSGTEFTLTISSLQSEDFAVYYCQQLILWPPRTFGGGTKVEIK
notes: anti-BACE1 IgG
- Kd (human BACE1 ECD [7]): 1.8 nM
- Kd (murine BACE1 ECD [8]): 2 nM
- Kd (human BACE1 ECD [9]): 0.86 nM
- Kd (murine BACE1 ECD [10]): 1.4 nM
- Kd [11]: 4.25 nM
- % inhibition of BACE1 activity, short FRET substrate (human BACE1 ECD [12]): -86%
- % inhibition of BACE1 activity, short FRET substrate (murine BACE1 ECD [13]): -183%
- EC50, FRET short substrate [14]: 0.602 nM
- EC50, HTRF long substrate [14]: 2.5 nM
- IC50, Abeta x-40 in mouse cortical neurons [15]: 1.79 nM
- maximal % inhibition of Abeta x-40 [15]: 82%

B10: 5930 (antibody, V domains shown)
VH: QVQLVQSGAEVKKPGSSVKVSCKASGGTLSGYAISWVRQAPGQGLEWMGNIIPGFGTANYAQKSQGRVTITADESTSTAYMELSSLRSEDTAVYYCARSGGTRYGMLDVWGQGTMVTVSS
VL: EIVMTQSPATLSVSPGERATLSCRASQSVGSNLAWYQQKPGQAPRLLIYGASTRATGIPARFSGSGSGTEFTLTISSLQSEDFAVYYCQQLYTWPPRTFGGGTKVEIK
notes: anti-BACE1 IgG
- Kd (human BACE1 ECD [7]): < 0.23 nM
- Kd (murine BACE1 ECD [8]): < 0.29 nM
- Kd (human BACE1 ECD [9]): < 0.29 nM
- Kd (murine BACE1 ECD [10]): < 0.3 nM
- Kd [11]: 6.41 nM
- IC50, Abeta x-40 in mouse cortical neurons [16]: 7.52 nM
- maximal % inhibition of Abeta x-40 [16]: 74%

B11: 5890 (antibody, V domains shown)
VH: QVQLVQSGAEVKKPGSSVKVSCKASGGTFSSYAISWVRQAPGQGLEWMGNIIPGFGTANYAQKFQGRVTITADESTSTAYMELSSLRSEDTAVYYCARSGGTKYGMLDVWGQGTMVTVSS
VL: EIVMTQSPATLSVSPGERATLSCRASQSVGSNLAWYQQKPGQAPRLLIYGASTRATGIPARFSGSGSGTEFTLTISSLQSEDFAVYYCQQLYTWPPRTFGGGTKVEIK
notes: anti-BACE1 IgG
- Kd (human BACE1 ECD [7]): 0.64 nM
- Kd (murine BACE1 ECD [8]): 0.79 nM
- Kd (human BACE1 ECD [9]): 0.55 nM
- Kd (murine BACE1 ECD [10]): 1 nM
- Kd [11]: 3.22 nM
- % inhibition of BACE1 activity, short FRET substrate (human BACE1 ECD [12]): 66%
- % inhibition of BACE1 activity, short FRET substrate (murine BACE1 ECD [13]): 69%
- EC50, FRET short substrate [14]: 32.4 nM
- EC50, HTRF long substrate [14]: 4.06 nM
- IC50, Abeta x-40 in mouse cortical neurons [15]: 8.45 nM
- maximal % inhibition of Abeta x-40 [15]: 77%

B12: 7G7 (antibody, V domains shown)
VH: QVQLQQPGSELVRPGASVKLSCKASGYTFTSYWMHWVKQRHGQGLEWIGNIYPGSGSTKYDERFKSKGTLTVDTSSSTAYMHLSSLTSEDSAVYYCTRGGYDSRAWFAYWGQGTLVTVSA
VL: DIVLTQSPASLAVSLGQRATISCRARQSVSTSSYSFMHWYRQKAGQPPKLLIKYASIQESGVPARFSGSGSGTDFTLNILPVEEEDTATYYCQHTWEIPFTFGSGTKLEIK
notes: Mouse hybridoma antibody; also called clone 7G7
- Kd [1]: 45.7 nM
- Kd [2]: 262 nM

B13: 13D4 (antibody, V domains shown)
VH: QVQLQQSGAELMKPGASVKISCKAAGYTFSNYWIEWVKQRPGHGLEWIGEILPGSGSTKYNEKFKGKATFTADTSSNTAYMQLSSLTSEDSAVYYCARRGGYGYDGEFAYWGQGTLVTVSA
VL: DIQMTQTTSSLSASLGDRVTINCRAGQDITNYLNWFQQKPDGTVKLLIYYTSRLHSGVPSRFSGSGSGTDYSLTITNLEQEDIATYFCQQANTLPYTFGGGTKLEIK
notes: Mouse hybridoma antibody; also called clone 13D4
- Kd [1]: 9.5 nM
- Kd [2]: 8.47 nM

More lines, in order of falling Kd [1], values ahead:

- Kd [1]: 2.08 nM
- Kd [2]: 89.9 nM
B3: 10D11 (antibody, V domains shown)
VH: QVQLQQSGPELVRPGVAVKISCKGSGYKFIDYGMHWVKQSHTKSLQWIGVISPYSGKTNYSQKFKGKATMTVDKSSSTAYMELARLTSEDSAIYYCARGLSGNFVMDFWGQGTSVTVSS
VL: DIVLTQSPASLAVSLGQRATISCRASESVDSYGPSFMHWYQQKPGQPPKLLIYRASNLESGIPARFSGSGSRTDFTLTINPVEADDVATYYCQHSNEDPPTFGGGTRLEIK
notes: Mouse hybridoma antibody; also called clone 10D11

- Kd [1]: 2.07 nM
- Kd [2]: 7.45 nM
- Kd [3]: 2.07 nM
- Kd [4]: 7.45 nM
B1: 16F6 (antibody, V domains shown)
VH: DVQLQESGPGLVKPSQSLSLTCTVTGNSITSEYAWNWIRQFPGNKLEWMGYISYSGTTSYNPSLKSRISITRDTSKNQLFLQLNSVTTEDTATYFCARYGYGNPATRYFDVWGAGTTVTVSS
VL: DVQITQSPSYLTASPGETITINCRASKSISKYLAWYQEKPGKTNKLLIYSGSTLQSGIPSRFSGSGSGTDFTLTISNLEPEDFAMYYCQQHNEYPWTFGGGTKLEIK
notes: Mouse hybridoma antibody; also called clone 16F6

- Kd [1]: 2.03 nM
- Kd [2]: 43.4 nM
B6: 1B12 (antibody, V domains shown)
VH: EVKLVESGGGLVQPGGFLKLSCATSGFTFSDYYMYWVRQTPEKRLEWVASISNGGDNTYYPDTVKGRFTISRDNAKNTLYLQMSRLKSEDTAMYYCARQGALYDGYYRGAMDYWGQGTSVTVSS
VL: QIVLTQSPAIMSASLGGRVTMTCTTSSSVPSSYFHWYQQKPGSSPKLWIYSTSNLASGVPARFSGSGSGTSYSLTISSMEAEDAATYYCHQYHRSPFTFGSGTKLEIK
notes: Mouse hybridoma antibody; also called clone 1B12

- Kd [1]: 0.992 nM
- Kd [2]: 2.6 nM
- Kd [5]: 0.992 nM
- Kd [6]: 2.6 nM
B7: 15G11 (antibody, V domains shown)
VH: QVQLQQPGAELVKPGASVKLSCKASGYTFTSYWMHWVKQRPGQGLEWIGEINPTNGRTNYIEKFKSKATLTVDKSSSTAYMQLSSLTSEDSAVYYCARGTRAYHYWGQGTSVTVSS
VL: DIQMTQSPASLSVSVGETVTITCRASDNLYSNLAWYQQKQGKSPQLLVYDATNLADGVPSRFSGSGSGTQYSLKINSLQSEDFGTYYCQHFWGTPLTFGAGTKLELK
notes: Mouse hybridoma antibody; also called clone 15G11

- Kd [1]: 0.179 nM
- Kd [2]: 0.904 nM
B5: 8A2 (antibody, V domains shown)
VH: QVQLQQSGPELVRPGVSVKISCKGSGYTFTDYGMHWVKQSHAKSLEWIGVISPYSGRTNYNQNFKGKATMTVDKSSSTAYLELARLTSEDSAIYYCARGLSGNYVVDYWGQGTSVTVSS
VL: DIVLTQSPASLAVSLGQRATISCRASESVDSYGNSFMHWYQQKPGQPPKLLIYRASNLESGIPARFSGSGSRTDFTLTINPVEADDVATYYCQQSNEGPPTFGGGTKLEIK
notes: Mouse hybridoma antibody; also called clone 8A2

- Kd [1]: 0.112 nM
- Kd [2]: 0.925 nM
- Kd [5]: 0.112 nM
- Kd [6]: 0.925 nM
B4: 7A4 HC/8A2 LC (antibody, V domains shown)
VH: QVQLQQSGPELVRPGVSVKISCKGSGYTFTDYAMHWVKQSHAKSLEWIGGISTYFGRTNYNQKFKGRATMTVDKSSSTAYMELARLTSEDSALYYCARGLSGNYVMDYWGQGTSVTVSS
VL: DIVLTQSPASLAVSLGQRATISCRASESVDSYGNSFMHWYQQKPGQPPKLLIYRASNLESGIPARFSGSGSRTDFTLTINPVEADDVATYYCQQSNEGPPTFGGGTKLEIK
notes: chimeric IgG; also called ch7A4/8A2
